Results on 4 molecules are retold here after publication PMC3756911 (Nature, 2013).

B4: hnRNPA1-D262N (full-length) (natural protein)
chain: MSKSESPKEPEQLRKLFIGGLSFETTDESLRSHFEQWGTLTDCVVMRDPNTKRSRGFGFVTYATVEEVDAAMNARPHKVDGRVVEPKRAVSREDSQRPGAHLTVKKIFVGGIKEDTEEHHLRDYFEQYGKIEVIEIMTDRGSGKKRGFAFVTFDDHDSVDKIVIQKYHTVNGHNCEVRKALSKQEMASASSSQRGRSGSGNFGGGRGGGFGGNDNFGRGGNFSGRGGFGGSRGGGGYGGSGDGYNGFGNDGSNFGGGGSYNNFGNYNNQSSNFGPMKGGNFGGRSSGPYGGGGQYFAKPRNQGGYGGSSSSSSYGSGRRF

Series [1] deals with the molecule itself. Nature of the series: thioflavin-T fluorescence + electron microscopy.
In series [2] the target is hnRNPA2 D290V (full-length) (human, UniProt P22626-2 1-341, D290V). Nature of the series: cross-seeded fibrillization, sedimentation analysis.
Series [3] addresses B4. The series is described as above.
Series [4] deals with hnRNPA1-D262V (full-length) (human, UniProt P09651-2 1-320, D262V). Described as above.
Series [5] concerns the molecule itself. Nature of the series: seeded fibrillization, sedimentation analysis.

B1: A2 D290V hexapeptide (NYNVFG) (peptide)
peptide: NYNVFG
As to B1, the binding result in series [1] is listed as “binds”.

B2: hnRNPA2 wild-type (full-length) (natural protein)
chain: MEREKEQFRKLFIGGLSFETTEESLRNYYEQWGKLTDCVVMRDPASKRSRGFGFVTFSSMAEVDAAMAARPHSIDGRVVEPKRAVAREESGKPGAHVTVKKLFVGGIKEDTEEHHLRDYFEEYGKIDTIEIITDRQSGKKRGFGFVTFDDHDPVDKIVLQKYHTINGHNAEVRKALSRQEMQEVQSSRSGRGGNFGFGDSRGGGGNFGPGPGSNFRGGSDGYGSGRGFGDGYNGYGGGPGGGNFGGSPGYGGGRGGYGGGGPGYGNQGGGYGGGYDNYGGGNYGSGNYNDFGNYNQQPSNYGPMKSGNFGGSRNMGGPYGGGNYGPGGSGGSGGYGGRSRY
For B2, the binding result in series [2] is listed as “binds”.

B3: hnRNPA1 wild-type (full-length) (natural protein)
chain: MSKSESPKEPEQLRKLFIGGLSFETTDESLRSHFEQWGTLTDCVVMRDPNTKRSRGFGFVTYATVEEVDAAMNARPHKVDGRVVEPKRAVSREDSQRPGAHLTVKKIFVGGIKEDTEEHHLRDYFEQYGKIEVIEIMTDRGSGKKRGFAFVTFDDHDSVDKIVIQKYHTVNGHNCEVRKALSKQEMASASSSQRGRSGSGNFGGGRGGGFGGNDNFGRGGNFSGRGGFGGSRGGGGYGGSGDGYNGFGNDGSNFGGGGSYNDFGNYNNQSSNFGPMKGGNFGGRSSGPYGGGGQYFAKPRNQGGYGGSSSSSSYGSGRRF
Turning to B3, the binding result in series [3] and in series [4] was “binds” in each case.

On to B4, for which the binding result in series [5] was “binds”.
